Reference: the supplement of paper PMC10126150
± gives the standard deviation of the averaged measurements.

Tested on: ATP
Test: switch fluorescence ratio, 500 uM ATP over buffer (Cy3 cluster intensity, sum of 5 cycles each) (fold (ratio)); higher = stronger signal-on switching upon ATP binding; sequences stand for … in TCGTCGGCAGCGTCAGATGTGTATAAGAGACAGTTTTTTTTTTTTTTTTTTTTTTTTT…TC
Conditions: aptamer strand: ATP DNA aptamer (quencher-CACCTGGGGGAGTATTGCGGAGGAAGG + anchor), 100 nM annealed; ATP concentration: 500 uM
Summary of the method: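 Between each of five buffer/ATP cycles, the flow-cell was stripped with NaOH and re-annealed. Each cycle imaged Cy3-labelled switching-strand clusters, annealed to 100 nM quencher-labelled ATP aptamer on a modified Illumina MiSeq flow-cell, first in selection buffer and then after 15 min with 500 uM ATP at 22 °C. The fluorescence ratio is summed target-cycle over summed buffer-cycle Cy3 intensity per cluster, averaged per switch-domain sequence, with clusters outside 100-1000 RFU excluded.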
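Note: ATP exposure 15 min at 22 °C before imaging.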

Sequence | switch fluorescence ratio
TTTGTATTTA | 1.03 ± 0.041
TTTGTCAGGC | 1.02 ± 0.053
TTTGTCATCG | 1.03 ± 0.018
TTTGTCCATG | 0.996 ± 0.055
TTTGTCCCTT | 1.01 ± 0.041
TTTGTCCTTA | 0.9932 ± 0.0017
TTTGTGAGAA | 1.02 ± 0.0045
TTTGTGAGGG | 0.982 ± 0.028
TTTGTGAGTT | 1.017 ± 0.0042
TTTGTGATGT | 1.02 ± 0.066
TTTGTGATTT | 1.11 ± 0.27
TTTGTGCTC | 1.13 ± 0.15
TTTGTGGCAG | 0.991 ± 0.039
TTTGTGGCGT | 0.984 ± 0.023
TTTGTGGCTT | 1.38 ± 0.65
TTTGTGTAAT | 0.989 ± 0.038
TTTGTGTCAA | 1.01 ± 0.04
TTTGTGTGTC | 1 ± 0.025
TTTGTGTTCA | 0.98763 ± 0.00075
TTTGTTACGT | 1.04 ± 0.024
TTTGTTAGAC | 1.03 ± 0.022
TTTGTTATGG | 1.02 ± 0.063
TTTGTTATGT | 0.988 ± 0.019
TTTGTTATTG | 1.3 ± 0.44
TTTGTTCCAG | 1.01 ± 0.06

Sequence | switch fluorescence ratio
TTTGTTCTTT | 1.02 ± 0.081
TTTGTTGCTG | 1.03 ± 0.039
TTTGTTGTAG | 0.985 ± 0.028
TTTGTTGTCT | 0.995 ± 0.011
TTTGTTTCTT | 0.977 ± 0.032
TTTGTTTGAA | 0.962 ± 0.023
TTTGTTTGAG | 0.991 ± 0.037
TTTGTTTGGC | 0.983 ± 0.019
TTTGTTTGTG | 1 ± 0.014
TTTTAAAATT | 1 ± 0.035
TTTTAAACAT | 1.11 ± 0.09
TTTTAAAGA | 0.982 ± 0.026
TTTTAAAGTA | 1.01 ± 0.031
TTTTAAAGTG | 0.993 ± 0.034
TTTTAAAGTT | 0.968 ± 0.018
TTTTAAATCT | 1.03 ± 0.019
TTTTAAATTT | 1.01 ± 0.11
TTTTAACGAA | 1.01 ± 0.013
TTTTAACGGC | 0.971 ± 0.082
TTTTAAGAAG | 1.02 ± 0.018
TTTTAAGACG | 0.979 ± 0.069
TTTTAAGGCT | 0.982 ± 0.024
TTTTAAGGTG | 1.39 ± 0.055
TTTTAATACT | 1.04 ± 0.066
TTTTAATAGC | 1 ± 0.028

Sequence | switch fluorescence ratio
TTTTAATGCG | 1.04 ± 0.012
TTTTAATGGA | 1.03 ± 0.029
TTTTAATGGG | 0.999 ± 0.02
TTTTAATGTC | 0.984 ± 0.027
TTTTAATTGA | 1.02 ± 0.031
TTTTAATTGT | 1.08 ± 0.083
TTTTACACTT | 1.04 ± 0.017
TTTTACGCT | 1.03 ± 0.06
TTTTACGCTG | 1 ± 0.036
TTTTACGGGT | 1.02 ± 0.087
TTTTACTAAA | 1.06 ± 0.036
TTTTAGACAG | 1.01 ± 0.017
TTTTAGACGT | 0.991 ± 0.022
TTTTAGAGAT | 1.02 ± 0.038
TTTTAGATTG | 0.987 ± 0.028
TTTTAGGACA | 0.99977 ± 0.00081
TTTTAGGTAA | 0.9745 ± 0.0034
TTTTAGGTGA | 1.07 ± 0.025
TTTTAGGTGG | 0.98 ± 0.067
TTTTAGTAGC | 1.04 ± 0.0058
TTTTAGTATT | 0.9973 ± 0.0091
TTTTAGTTT | 0.996 ± 0.023
TTTTATAAAA | 1.03 ± 0.019
TTTTATACTT | 1 ± 0.011
TTTTATAGTG | 0.984 ± 0.033

Sequence | switch fluorescence ratio
TTTTATATAT | 1.014 ± 0.0079
TTTTATCCA | 1.016 ± 0.0095
TTTTATCCCC | 1.08 ± 0.1
TTTTATGGCA | 1.02 ± 0.021
TTTTATGTGG | 1.01 ± 0.04
TTTTATGTT | 0.978 ± 0.018
TTTTCAAAGC | 1.67 ± 0.84
TTTTCAAGTT | 1.21 ± 0.38
TTTTCAATTG | 1.01 ± 0.027
TTTTCACGGT | 1.01 ± 0.021
TTTTCAGCTG | 1.03 ± 0.016
TTTTCAGTTT | 1.022 ± 0.01
TTTTCATAAC | 1 ± 0.051
TTTTCATTGG | 0.985 ± 0.026
TTTTCATTTG | 1.01 ± 0.034
TTTTCCAGCC | 1.04 ± 0.036
TTTTCCAGGT | 1.83 ± 0.42
TTTTCCATTG | 1.01 ± 0.021
TTTTCCGACA | 2.28 ± 1.5
TTTTCCGCGC | 2.08 ± 0.47
TTTTCCGGTT | 1.23 ± 0.42
TTTTCCGTTC | 1.02 ± 0.021
TTTTCCTCTT | 1.02 ± 0.014
TTTTCGAATT | 0.991 ± 0.015
TTTTCGAGCT | 1.006 ± 0.0095

Sequence | switch fluorescence ratio
TTTTCGAGGT | 1.17 ± 0.24
TTTTCGCCAC | 2.35 ± 1.3
TTTTCGCTGT | 1.02 ± 0.016
TTTTCGGACA | 1.033 ± 0.0027
TTTTCGGGCG | 0.944 ± 0.017
TTTTCGGTAG | 0.989 ± 0.027
TTTTCGGTCG | 0.999 ± 0.046
TTTTCGTGGC | 0.989 ± 0.1
TTTTCGTTGT | 0.996 ± 0.018
TTTTCTACCC | 1.03 ± 0.059
TTTTCTAGGT | 0.982 ± 0.021
TTTTCTCAGC | 1.05 ± 0.029
TTTTCTCTCA | 1.01 ± 0.02
TTTTCTGACC | 1.02 ± 0.012
TTTTCTGCCT | 1.07 ± 0.089
TTTTCTTTGG | 1.03 ± 0.077
TTTTGAAATA | 0.997 ± 0.017
TTTTGAACGC | 1.065 ± 0.0016
TTTTGAAGTC | 1.03 ± 0.092
TTTTGAGACT | 0.96 ± 0.0084
TTTTGAGAGA | 1.11 ± 0.25
TTTTGAGAGG | 0.983 ± 0.036
TTTTGAGATT | 0.995 ± 0.011
TTTTGAGCGG | 1.04 ± 0.015
TTTTGAGTCG | 1.01 ± 0.033

Sequence | switch fluorescence ratio
TTTTGAGTTC | 1.035 ± 0.0057
TTTTGATACG | 0.996 ± 0.041
TTTTGATCAT | 0.98 ± 0.013
TTTTGATCGT | 0.962 ± 0.023
TTTTGATGAC | 1.01 ± 0.047
TTTTGATTAT | 0.978 ± 0.034
TTTTGCACCG | 1.02 ± 0.053
TTTTGCCAGT | 1.11 ± 0.23
TTTTGCCGAT | 0.989 ± 0.023
TTTTGCCTTA | 1.007 ± 0.0063
TTTTGCGAAT | 0.996 ± 0.018
TTTTGCGGCG | 1.25 ± 0.29
TTTTGCGGTG | 1.01 ± 0.017
TTTTGCGTTT | 0.992 ± 0.07
TTTTGCTATT | 1.03 ± 0.013
TTTTGGACAT | 0.993 ± 0.029
TTTTGGAGAA | 1.02 ± 0.037
TTTTGGAGAT | 1.01 ± 0.027
TTTTGGAGGA | 1.02 ± 0.019
TTTTGGAGTT | 0.998 ± 0.035
TTTTGGATCG | 1 ± 0.012
TTTTGGATTT | 0.993 ± 0.018
TTTTGGCAGG | 1.03 ± 0.037
TTTTGGCAGT | 1.09 ± 0.013
TTTTGGCCAT | 0.995 ± 0.082

Sequence | switch fluorescence ratio
TTTTGGCCTA | 1.01 ± 0.029
TTTTGGCGGC | 0.9504 ± 0.0056
TTTTGGCTTG | 0.9884 ± 0.0012
TTTTGGGACC | 0.992 ± 0.037
TTTTGGGATA | 1.03 ± 0.025
TTTTGGGATC | 0.996 ± 0.016
TTTTGGGCCA | 1.04 ± 0.018
TTTTGGGGAG | 1.02 ± 0.029
TTTTGGGGAT | 1.01 ± 0.026
TTTTGGGGGT | 1.03 ± 0.096
TTTTGGTAAT | 1.01 ± 0.014
TTTTGGTGAG | 0.972 ± 0.025
TTTTGGTGGG | 0.9972 ± 0.0074
TTTTGGTTAT | 1.01 ± 0.03
TTTTGTAAGG | 1.011 ± 0.0043
TTTTGTATCG | 0.948 ± 0.052
TTTTGTCAAG | 1.01 ± 0.033
TTTTGTCAAT | 1.1 ± 0.13
TTTTGTCGGT | 0.9667 ± 0.0042
TTTTGTGGAA | 0.998 ± 0.027
TTTTGTGGGA | 1.01 ± 0.031
TTTTGTGGTT | 1.02 ± 0.065
TTTTGTGTTA | 0.997 ± 0.033
TTTTGTTATG | 0.9903 ± 0.0085
TTTTGTTCGG | 0.99 ± 0.029

Sequence | switch fluorescence ratio
TTTTGTTGGG | 0.991 ± 0.03
TTTTGTTGTA | 0.996 ± 0.024
TTTTGTTGTT | 0.995 ± 0.035
TTTTGTTTAT | 1.01 ± 0.058
TTTTGTTTCT | 0.992 ± 0.027
TTTTGTTTTA | 1 ± 0.015
TTTTTAAAAA | 1.01 ± 0.059
TTTTTAAAGC | 0.995 ± 0.038
TTTTTAACGG | 1.01 ± 0.024
TTTTTAAGCA | 1.02 ± 0.034
TTTTTAAGGC | 1.02 ± 0.032
TTTTTAAGTC | 0.985 ± 0.026
TTTTTAATCC | 1.05 ± 0.017
TTTTTACATC | 1 ± 0.021
TTTTTACCCT | 1.08 ± 0.067
TTTTTACGGA | 1.02 ± 0.043
TTTTTACGGG | 1.02 ± 0.043
TTTTTACTGC | 0.997 ± 0.029
TTTTTAGAAT | 0.993 ± 0.027
TTTTTAGAGT | 0.985 ± 0.026
TTTTTAGCGT | 0.995 ± 0.027
TTTTTAGGAG | 1 ± 0.035
TTTTTAGGTC | 1.1 ± 0.21
TTTTTAGGTG | 1.27 ± 0.2
TTTTTAGTAG | 1.01 ± 0.03
